Data as given in patent US20220289795, “EFFICIENT METHOD FOR PREPARING PPR PROTEIN AND USE OF THE SAME” (EditForce, Inc., published 2022).

Experiments:
Test in all cases: ELONA; RPB-ELISA
v3.1_PPR10 = biological target: T1, v3.1_PPR10 (Artificial Sequence); settings: tags: luciferase fusion; label: 5'-biotin
T1 chain: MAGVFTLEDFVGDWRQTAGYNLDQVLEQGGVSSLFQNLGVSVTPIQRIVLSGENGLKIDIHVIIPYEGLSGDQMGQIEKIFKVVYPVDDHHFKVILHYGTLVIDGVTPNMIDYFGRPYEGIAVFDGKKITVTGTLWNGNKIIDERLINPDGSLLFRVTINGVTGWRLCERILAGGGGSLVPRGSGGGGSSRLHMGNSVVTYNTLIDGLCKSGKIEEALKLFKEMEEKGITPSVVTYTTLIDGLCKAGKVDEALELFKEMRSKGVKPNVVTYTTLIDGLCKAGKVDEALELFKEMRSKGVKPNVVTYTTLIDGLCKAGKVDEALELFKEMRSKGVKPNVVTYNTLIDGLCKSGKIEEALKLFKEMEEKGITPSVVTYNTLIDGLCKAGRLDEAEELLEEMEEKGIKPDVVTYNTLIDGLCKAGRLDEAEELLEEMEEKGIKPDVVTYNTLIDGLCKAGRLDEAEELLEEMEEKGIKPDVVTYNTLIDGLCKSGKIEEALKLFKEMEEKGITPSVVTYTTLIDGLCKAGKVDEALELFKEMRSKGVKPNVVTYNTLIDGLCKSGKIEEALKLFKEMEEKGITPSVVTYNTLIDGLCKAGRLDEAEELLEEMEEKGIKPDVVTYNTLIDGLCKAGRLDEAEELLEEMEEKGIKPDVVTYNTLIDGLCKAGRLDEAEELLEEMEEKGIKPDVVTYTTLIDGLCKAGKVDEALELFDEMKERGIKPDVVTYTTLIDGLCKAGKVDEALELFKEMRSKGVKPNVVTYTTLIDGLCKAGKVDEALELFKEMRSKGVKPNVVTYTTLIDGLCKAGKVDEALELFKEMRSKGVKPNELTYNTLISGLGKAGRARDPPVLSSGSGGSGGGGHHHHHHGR

NL_v2_PPR10 = biological target: T2, NL_v2_PPR10 (Artificial Sequence); settings: tags: N-term luciferase, C-term 6xHis; label: 5'-biotin
T2 chain: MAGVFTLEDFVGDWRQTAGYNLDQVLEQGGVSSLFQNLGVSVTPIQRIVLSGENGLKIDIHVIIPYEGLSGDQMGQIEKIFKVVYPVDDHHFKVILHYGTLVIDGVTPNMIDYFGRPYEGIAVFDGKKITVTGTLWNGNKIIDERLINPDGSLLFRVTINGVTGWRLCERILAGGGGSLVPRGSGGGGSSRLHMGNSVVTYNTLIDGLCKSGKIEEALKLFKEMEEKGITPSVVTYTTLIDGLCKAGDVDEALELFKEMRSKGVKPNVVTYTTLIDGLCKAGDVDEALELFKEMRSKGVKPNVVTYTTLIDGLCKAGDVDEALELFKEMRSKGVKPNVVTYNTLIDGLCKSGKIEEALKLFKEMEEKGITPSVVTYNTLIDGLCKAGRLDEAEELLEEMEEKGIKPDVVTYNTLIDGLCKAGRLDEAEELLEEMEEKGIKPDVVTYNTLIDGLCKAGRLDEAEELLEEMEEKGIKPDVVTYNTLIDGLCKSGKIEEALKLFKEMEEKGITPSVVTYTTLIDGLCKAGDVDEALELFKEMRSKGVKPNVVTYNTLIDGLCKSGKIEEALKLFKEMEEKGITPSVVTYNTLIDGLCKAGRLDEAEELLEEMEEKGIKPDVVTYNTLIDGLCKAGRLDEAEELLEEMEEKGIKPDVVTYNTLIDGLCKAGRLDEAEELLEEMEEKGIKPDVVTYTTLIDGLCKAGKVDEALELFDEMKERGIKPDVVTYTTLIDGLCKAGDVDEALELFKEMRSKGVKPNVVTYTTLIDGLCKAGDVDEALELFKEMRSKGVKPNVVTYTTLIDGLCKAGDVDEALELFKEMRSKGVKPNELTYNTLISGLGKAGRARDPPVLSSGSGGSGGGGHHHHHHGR

NL_v2_PPR11 = biological target: T3, NL_v2_PPR11 (Artificial Sequence); settings: tags: N-term luciferase, C-term 6xHis; label: 5'-biotin
T3 chain: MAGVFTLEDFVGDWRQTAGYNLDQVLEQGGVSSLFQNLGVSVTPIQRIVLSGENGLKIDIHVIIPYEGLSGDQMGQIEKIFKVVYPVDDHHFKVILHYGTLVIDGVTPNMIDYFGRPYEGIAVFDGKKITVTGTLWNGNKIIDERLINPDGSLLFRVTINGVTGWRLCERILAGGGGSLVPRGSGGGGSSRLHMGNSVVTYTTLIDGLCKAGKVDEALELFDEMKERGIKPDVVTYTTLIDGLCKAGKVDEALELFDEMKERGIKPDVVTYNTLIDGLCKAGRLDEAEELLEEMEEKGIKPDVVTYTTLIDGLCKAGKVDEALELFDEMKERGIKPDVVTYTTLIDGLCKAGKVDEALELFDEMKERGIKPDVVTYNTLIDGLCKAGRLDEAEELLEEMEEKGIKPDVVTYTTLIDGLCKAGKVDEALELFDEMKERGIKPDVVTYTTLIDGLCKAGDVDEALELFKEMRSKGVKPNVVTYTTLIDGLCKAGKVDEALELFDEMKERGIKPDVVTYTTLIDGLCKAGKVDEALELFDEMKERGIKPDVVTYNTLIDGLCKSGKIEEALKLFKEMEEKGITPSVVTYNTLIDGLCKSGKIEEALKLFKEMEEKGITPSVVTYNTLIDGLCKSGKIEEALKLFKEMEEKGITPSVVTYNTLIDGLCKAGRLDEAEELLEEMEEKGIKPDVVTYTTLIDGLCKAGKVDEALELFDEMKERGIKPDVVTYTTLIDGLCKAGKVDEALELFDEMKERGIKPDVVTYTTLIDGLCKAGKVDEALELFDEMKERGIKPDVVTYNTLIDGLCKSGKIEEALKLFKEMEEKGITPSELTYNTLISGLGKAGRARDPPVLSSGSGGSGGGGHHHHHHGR

v3.1_PPR11 = biological target: T4, v3.1_PPR11 (Artificial Sequence); settings: tags: luciferase fusion; label: 5'-biotin
T4 chain: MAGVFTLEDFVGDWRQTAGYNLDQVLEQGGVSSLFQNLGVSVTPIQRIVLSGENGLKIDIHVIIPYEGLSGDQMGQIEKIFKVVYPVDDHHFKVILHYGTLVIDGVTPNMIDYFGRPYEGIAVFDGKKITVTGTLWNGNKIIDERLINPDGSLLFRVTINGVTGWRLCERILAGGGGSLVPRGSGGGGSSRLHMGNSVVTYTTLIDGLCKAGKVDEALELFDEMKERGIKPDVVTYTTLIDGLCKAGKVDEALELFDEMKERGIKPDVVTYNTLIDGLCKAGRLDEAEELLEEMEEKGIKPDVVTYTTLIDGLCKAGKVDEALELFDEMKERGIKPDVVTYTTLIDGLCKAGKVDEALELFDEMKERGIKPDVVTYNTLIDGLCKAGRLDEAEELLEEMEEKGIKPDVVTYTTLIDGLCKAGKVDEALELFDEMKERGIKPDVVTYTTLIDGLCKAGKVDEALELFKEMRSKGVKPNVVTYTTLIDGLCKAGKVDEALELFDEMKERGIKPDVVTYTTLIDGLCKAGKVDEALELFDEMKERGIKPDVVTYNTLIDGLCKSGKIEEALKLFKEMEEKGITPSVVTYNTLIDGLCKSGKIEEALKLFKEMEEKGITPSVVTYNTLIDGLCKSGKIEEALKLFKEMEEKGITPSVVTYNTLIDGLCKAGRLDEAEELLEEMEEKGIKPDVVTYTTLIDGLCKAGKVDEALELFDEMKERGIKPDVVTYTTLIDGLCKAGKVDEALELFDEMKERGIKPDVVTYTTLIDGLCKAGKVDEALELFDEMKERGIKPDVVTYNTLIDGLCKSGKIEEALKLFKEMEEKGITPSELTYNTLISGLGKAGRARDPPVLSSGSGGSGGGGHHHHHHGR

v3.1_PPR12 = biological target: T5, v3.1_PPR12 (Artificial Sequence); settings: tags: luciferase fusion; label: 5'-biotin
T5 chain: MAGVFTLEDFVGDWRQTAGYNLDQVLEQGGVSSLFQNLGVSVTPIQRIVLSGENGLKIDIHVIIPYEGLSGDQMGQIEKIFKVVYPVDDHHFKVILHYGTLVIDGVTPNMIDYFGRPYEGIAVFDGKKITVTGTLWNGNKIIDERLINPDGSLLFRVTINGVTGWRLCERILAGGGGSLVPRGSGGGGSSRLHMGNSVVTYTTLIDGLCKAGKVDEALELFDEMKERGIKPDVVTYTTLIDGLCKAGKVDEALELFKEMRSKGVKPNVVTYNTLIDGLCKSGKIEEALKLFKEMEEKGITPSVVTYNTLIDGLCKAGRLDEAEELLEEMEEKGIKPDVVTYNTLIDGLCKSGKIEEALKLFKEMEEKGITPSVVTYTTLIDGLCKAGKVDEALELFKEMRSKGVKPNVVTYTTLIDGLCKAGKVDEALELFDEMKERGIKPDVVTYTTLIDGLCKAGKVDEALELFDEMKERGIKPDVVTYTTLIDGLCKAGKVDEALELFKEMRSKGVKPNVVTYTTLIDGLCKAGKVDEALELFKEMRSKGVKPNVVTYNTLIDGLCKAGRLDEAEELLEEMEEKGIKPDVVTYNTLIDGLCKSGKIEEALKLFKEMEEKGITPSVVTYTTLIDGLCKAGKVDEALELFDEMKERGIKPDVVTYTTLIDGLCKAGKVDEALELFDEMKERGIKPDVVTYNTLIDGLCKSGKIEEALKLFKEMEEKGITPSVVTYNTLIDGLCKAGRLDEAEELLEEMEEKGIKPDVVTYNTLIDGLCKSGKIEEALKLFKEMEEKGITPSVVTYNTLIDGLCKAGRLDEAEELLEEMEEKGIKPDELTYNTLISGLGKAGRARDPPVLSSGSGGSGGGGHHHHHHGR

NL_v2_PPR12 = biological target: T6, NL_v2_PPR12 (Artificial Sequence); settings: tags: N-term luciferase, C-term 6xHis; label: 5'-biotin
T6 chain: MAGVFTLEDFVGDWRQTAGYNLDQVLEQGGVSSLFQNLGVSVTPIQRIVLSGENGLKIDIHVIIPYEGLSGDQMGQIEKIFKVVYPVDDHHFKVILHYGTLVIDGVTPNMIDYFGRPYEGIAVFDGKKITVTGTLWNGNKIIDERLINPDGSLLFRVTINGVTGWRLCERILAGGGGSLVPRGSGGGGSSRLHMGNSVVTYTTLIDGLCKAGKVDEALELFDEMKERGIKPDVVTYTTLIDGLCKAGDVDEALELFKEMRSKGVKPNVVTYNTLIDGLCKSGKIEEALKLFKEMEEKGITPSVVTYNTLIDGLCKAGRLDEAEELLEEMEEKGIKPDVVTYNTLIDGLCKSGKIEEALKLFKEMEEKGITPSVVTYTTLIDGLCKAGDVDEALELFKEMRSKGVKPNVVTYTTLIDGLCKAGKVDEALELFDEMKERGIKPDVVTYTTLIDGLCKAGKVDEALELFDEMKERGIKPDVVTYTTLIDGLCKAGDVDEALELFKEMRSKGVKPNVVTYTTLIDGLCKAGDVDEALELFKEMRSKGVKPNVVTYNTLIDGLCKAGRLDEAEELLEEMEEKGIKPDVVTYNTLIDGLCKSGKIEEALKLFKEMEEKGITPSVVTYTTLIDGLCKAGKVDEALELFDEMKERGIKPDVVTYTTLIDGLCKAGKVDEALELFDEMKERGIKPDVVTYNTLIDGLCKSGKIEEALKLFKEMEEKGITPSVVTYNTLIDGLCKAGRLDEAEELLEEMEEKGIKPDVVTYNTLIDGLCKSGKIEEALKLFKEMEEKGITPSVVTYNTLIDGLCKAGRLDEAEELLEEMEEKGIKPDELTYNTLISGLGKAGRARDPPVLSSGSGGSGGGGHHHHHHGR

GACAUGCCAAACUUUCACUUUGAAAGACUG (ssRNA) [RNA_10]
binding signal (v3.1_PPR10): 5.8e+07 luminescence
binding signal (NL_v2_PPR10): 7.8e+06 luminescence

GACAUGCGGUGGUGAGGCCCUGGGCGACUG (ssRNA) [RNA_11]
binding signal (NL_v2_PPR11): 1.2e+07 luminescence
binding signal (v3.1_PPR11): 2.6e+07 luminescence

GACAUGCGACUCAGGAAUCGGCUCUGACUG (ssRNA) [RNA_12]
binding signal (v3.1_PPR12): 1.8e+07 luminescence
binding signal (NL_v2_PPR12): 3.8e+07 luminescence
